In US10752675B2, “Compounds for treating the remyelination blockade in diseases associated with the expression of HERV-W envelope protein” (GENEURO S.A., priority 2012, dated 2020):
Entries after “also recorded” stand apart in the source; their conditions may differ.

How the values were obtained:
[1] = Weight gain kinetics, Example 3.B; type: in vivo, mice
Method: Mice were weighed 3 times a week on Monday, Wednesday and Friday during all experiment.
All mice received three injections s.c. on the neck at DO, on the dorsal flank at D7 and D14. Here, mice from Group A were injected with 200 μg/mouse of MOG and IFA only, without Env, thus constituting a negative control group without EAE in the present series (ctrl −). The positive control group with untretated EAE in the present series is represented by Group B (ctrl +). Other groups were injected with 200 μg of MOG/mouse+MSRV-ENV (60 μg)+IFA, with treatments as indicated in the above summarized presentation. Treatments have been initiated on day 12 post immunization in their corresponding groups.
The clinical signs score and weight were evaluated regularly as described above. The EAE clinical score kinetics over the study period are represented in FIGS. 22, 23 and 24. The weight curves, indicating relative weight gain compared to the day before first injection of immunogens, are presented in FIGS. 25, 26 and 27.

human OPC = test: Expression of MBP in human OPC in primary culture stimulated by MSRV-Env, with or without GNbAC1 (immunocytochemistry); type: cell-based; conditions: for MBP positive cells, normalized to control condition (buffer = 100%): pooled data
Method: Full length recombinant MSRV-Env was produced and purified by PX′Therapeutics (548 aa; 61.44 KDa) (batch 110719-1). The initial concentration was 0.6 mg/ml (9.76 μM). MSRV-Env Buffer (20 mM Trizma-HCl, pH 7.5, 150 mM NaCl, 1.5% SDS, 10 mM DTT) was provided by PX′Therapeutics. This solution was used as a negative control. GNbAC1 (Batch T96/bAC1/B1; GMP production) was produced and purified by Polymun Scientific, Vienna, Austria. The initial concentration was 10 mg/ml (68.03 μM).
Human OPC were stimulated with the different treatments either by coating solutions on the cell culture plate surface before cells seeding or by adding them in the cell culture medium after cells seeding. In any case, labtek 8-wells chamber slides (Nunc) were previously coated with poly-L-lysine (Sigma-Aldrich) overnight at 37° C.
The different treatments were diluted in PBS under a sterile laminar flow hood (Fischer Bioblock, France) and the Labtek 8 wells chambers slides (Nunc; 250 μl per well) were coated as follows: • MSRV-Env (1 μg/ml) coated for 2 hours at 37° C. • MSRV-Env Buffer (same dilution than MSRV-Env) coated for 2 hours at 37° C. • MSRV-Env+GNbAC1 A1: MSRV-Env (1 μg/ml) and GNbAC1 (7.35 μg/ml=50 nM) mixture coated for 2 hours at 37° C. • MSRV-Env+GNbAC1 A2: MSRV-Env (1 μg/ml) and GNbAC1 (29.4 μg/ml=200 nM) mixture coated for 2 hours at 37° C. • MSRV-Env+GNbAC1 B1: MSRV-Env (1 μg/ml) coated for 2 hours at 37° C., washed with PBS and subsequently coated with GNbAC1 (7.35 μg/ml=50 nM) for 1 hour at 37° C. • MSRV-Env+GNbAC1 B2: MSRV-Env (1 μg/ml) coated for 2 hours at 37° C., washed with PBS and subsequently coated with GNbAC1 (29.4 μg/ml=200 nM) for 1 hour at 37° C. • GNbAC1 A1 alone: GNbAC1 (7.35 μg/ml=50 nM) coated for 2 hours at 37° C. • GNbAC1 A2 alone: GNbAC1 (29.4 μg/ml=200 nM) coated for 2 hours at 37° C. • GNbAC1 B1 alone: PBS for 2 hours at 37° C., then coated with GNbAC1 (7.35 μg/ml=50 nM) for 1 hour at 37° C. • GNbAC1 B2 alone: PBS for 2 hours at 37° C., then coated with GNbAC1 (29.4 μg/ml=200 nM) for 1 hour at 37° C. • BSA (1 μg/ml) coated for 2 hours at 37° C. • BSA+GNbAC1 A1: BSA (1 μg/ml) and GNbAC1 (7.35 μg/ml=50 nM) mixture coated for 2 hours at 37° C. • BSA+GNbAC1 A2: BSA (1 μg/ml) and GNbAC1 (29.4 μg/ml=200 nM) mixture coated for 2 hours at 37° C. • BSA+GNbAC1 B1: BSA (1 μg/ml) coated for 2 hours at 37° C., washed with PBS and subsequently coated with GNbAC1 (7.35 μg/ml=50 nM) for 1 hour at 37° C. • BSA+GNbAC1 B2: BSA (1 μg/ml) coated for 2 hours at 37° C., washed with PBS and subsequently coated with GNbAC1 (29.4 μg/ml=200 nM) for 1 hour at 37° C. Human Oligodendrocyte Precursor Cells Culture
The vial containing the human OPC was placed in a 37° C. water bath and gently agitated by rotation until the content was completely thawed. The cells were gently resuspended with a 1 ml Gilson pipette. Then, they were diluted in complete OPCM, and seeded into the 8-wells labtek culture vessels (7000 cells/cm^2=10000 cells per well) previously coated with poly-L-lysine (0.01%, Sigma) and with (or without) the treatments described above (see 3.2.1.1) under a sterile laminar flow hood (Fischer Bioblock, France). The cultures were incubated at 37° C.; 5% CO2 until subsequent immunocytochemistry experiments. The growth medium was changed the next day to remove the residual DMSO and unattached cells in the cultures treated for 72 hours.
After 3 hours of pre-cultivation (see 3.2.1.2) of the human OPC in the 8-well labtek culture vessels, the cells were incubated at 37° C. for 24 hours or 72 hours in 8-wells labteks (250 μl/well) with the addition of the following solutions: • MSRV-Env Buffer, used as a negative control, added in complete cell culture medium • MSRV-Env added at 3 nM (0.184 μg/ml) in complete cell culture medium • MSRV-Env (3 nM)+GNbAC1 (200 nM; 29.4 μg/ml) mixture added in complete cell culture medium • GNbAC1 (200 nM) alone added in complete cell culture medium Expression of TLR4 and Myelination Markers in OPC In Vitro […]

B1: GNbAC1: recombinant humanized anti-Env IgG4 monoclonal antibody comprising the CDRs of SEQ ID No. 1 to 6 (antibody, chains of the INN, looked up, V domains shown)
VH: QVQLVQSGAEVKKPGSSVKVSCKASGYTFTDYEMHWVRQAPGQGLEWIGAVAPETGGTAYNQKFKGRATITADKSTSTAYMELSSLRSEDTAVYYCTSTVVPFAYWGQGTLVTVSS
VL: QIQLTQSPSSLSASVGDRVTITCSASSSVSYMYWYQQKPGKAPKAWIYRTSNLASGVPSRFSGSGSGTDYTLTISSLQPEDFATYYCQQYQSLPLTFGGGTKVEIK
**Q.** Which results are given for B1?
**A.** weight gain over the study period, endpoint ([1]; GNbAC1 200 μg): endpoints equivalent to mock-controls; weight gain over the study period, endpoint ([1]; GNbAC1 500 μg, alone or with DMF): best endpoint; also recorded: positive effect on the global health; effect on the decrease of MBP positive cells induced by coated MSRV-Env (human OPC; GNbAC1 50 nM, both protocols, 72 hours): partial effect; also recorded: partially inhibits MSRV-Env effect; effect on the decrease of MBP positive cells induced by coated MSRV-Env (human OPC; GNbAC1 200 nM, both protocols, 72 hours): complete inhibition; effect on the inhibition of MBP expression induced by coated MSRV-Env (human OPC; GNbAC1 200 nM, both protocols, 72 hours, OPC ICC 03): completely reverses; percentage of MBP positive cells (human OPC; GNbAC1-A 50 nM, coated MSRV-Env 1 μg/ml, 72 hours, OPC ICC 02): 69±2%; MBP positive cells, normalized to control condition (buffer = 100%) (human OPC; GNbAC1-A 200 nM with coated MSRV-Env): 101±2%; percentage of MBP positive cells (human OPC; GNbAC1-A 200 nM, coated MSRV-Env 1 μg/ml, 72 hours, OPC ICC 02): 73±2%; percentage of MBP positive cells (human OPC; GNbAC1-A 200 nM, coated MSRV-Env 1 μg/ml, 72 hours, OPC ICC 03): 80±2%; percentage of MBP positive cells (human OPC; GNbAC1-B 50 nM, coated MSRV-Env 1 μg/ml, 72 hours, OPC ICC 02): 68±2%; MBP positive cells, normalized to control condition (buffer = 100%) (human OPC; GNbAC1-B 200 nM with coated MSRV-Env): 97±2%; percentage of MBP positive cells (human OPC; GNbAC1-B 200 nM, coated MSRV-Env 1 μg/ml, 72 hours, OPC ICC 02): 74±2%; percentage of MBP positive cells (human OPC; GNbAC1-B 200 nM, coated MSRV-Env 1 μg/ml, 72 hours, OPC ICC 03): 75±2%; percentage of MBP positive cells (human OPC; MSRV-Env 3 nM + GNbAC1 200 nM in culture medium, 72 hours): 76±2%; effect on the decrease of MBP expression induced by MSRV-Env in culture medium (human OPC; MSRV-Env 3 nM, GNbAC1 200 nM, 72 hours): inhibits completely this effect
